Test system: K4 kissing-loop RNA reporter
Assay: apparent KD of K4 kissing-loop reporter; higher = weaker reporter binding
Settings: Eterna round: R107; input ligand: FMN 200 uM
Experimental: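 RNA-MaP round R107: designed RNA switches with theophylline, tryptophan, arginine or FMN aptamers are transcribed on-chip within common flanks. They are titrated with a labelled K4 kissing-loop RNA reporter in RNA-MaP buffer (100 mM Tris pH 7.5, 80 mM KCl, 4 mM MgCl2), without ligand or with the indicated ligand. Median apparent KD per design.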
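Also: bound reporter read as fluorescence of individual clusters on recovered sequencing chips by microscopy, with normalized cluster intensities fitted with a binding model.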

First: UUUUUAAUCGCAGAUACCAGUCCAGAAUAAAUACUAUAGUGAUGUUAUAAAUAAGGAAAGGACCCUUGGCAGCUGUACUAUAUUU [AstrosSsTheB#7]
Second: AACACUCAACGGAGUGAUGUUCUGGAAAACCGAGGACCGGUACGGCCGCCACUCGGAAAUGAGUGAGUCCUACGAAAAGUAGGAC [Omei inspired 2]
The “apparent KD of K4 kissing-loop reporter” value of the first is 2.7-fold higher: 433 nM for the first, 160 nM for the second.

First: AAUUUUAAUAAUAAAUAAUAAAUAAAUGAUACCAGUAUUUUUUUUUACCCUUGGCAGCGUAUAUAAGGGCAGUGAUGUUGUCAGA [whbob_SS_Theo_A_w59]
Second: AGAUGUUCCUGGGAUACCAGUCGGAGUCUCAGAGCUCGGAGUGAUGUUCUGGGAUGUUUCGGCCCUUGGCAGCUCUGGGACUCCC [#2 Exclusion - Theophylline B Attempt #24 (HarryS)]
The “apparent KD of K4 kissing-loop reporter” value of the first is 5-fold lower: 223 nM for the first, 1120 nM for the second.

“GGGCGUGGCGCGGCCGCCACUGCGCCUGGGUGCUCGCUGAGUGAUGUUCGUCGGCGGUUGGGUGGUAGGACCGGGUGCUGGUCGG [BDazzled - #11 SS Tryptophan B]” and “CGUGAAGCCCAGAGGUGAUGUAUAGUAUCGCGAGGACCGGUACGGCCGCCACUCGUGAAGAGAAAGGAGUGAUGUUCCGUAAUGG” are within 1.5-fold of each other in “apparent KD of K4 kissing-loop reporter” value: 640 nM for the first, 480 nM for the second.

First: AAUAAAAUCACGGCCGCCACUAAUGCUAGUAUUAGCAGUGAUGUUGCUAUGUAUAUUUUAUUUAAUAGGACCGGGUGAAUAUUUA [#23 K4 Tryptophan B Exclusion]
Second: AUUAAUUUCAGAGGAUAUCGUAUUAAUAUUUUAUCUAUCUAUAUAUGCAGUGAUGUUGCAAUAAUUCGAGAAGGCUGAUUUAUAA [JR_ExcFMNB_Sub009]
The “apparent KD of K4 kissing-loop reporter” value of the first is 3.5-fold higher: 332 nM for the first, 93.9 nM for the second.

“AAAUUUAUAUUAGAUACCAGUAUUUUGAAUGUUUAUUAUGACAAGAGUGAUGUUCUUGUAUGCCCUUGGCAGCUGGUAUGGGUUU [KL-XTheo-B23]” and “AAGGUUGUGCAUGGGAGUGAUGUUCCCAGGCAGGAUAUCGCUCACGCGAGAAGGGCUAGCACAACCGCUCAAGAAACUUGAGCAA [Omei KL FMN A SS C v4]” are within 1.5-fold of each other in “apparent KD of K4 kissing-loop reporter” value: 116 nM for the first, 117 nM for the second.

First: UCCAUGCGCGCACGGUACUUGCCCGCAUAUCGAGGACCGGUACGGCCGCCACUCGUGCCAGUGAUGUUGGCCGGAGAGCCUUAUG [theeternabot_sameState_KL_Trp_A_22]
Second: UGACAUUGCUCAGAUACCAGACUUGAGGAUCACCCAGGUGCCAAAUAAACGUACAUAAAAGUCCCUUGGCAGCUGAGCAAUGUCU [TheoBX 11]
The “apparent KD of K4 kissing-loop reporter” value of the first is 7.3-fold higher: 476 nM for the first, 64.8 nM for the second.

“CAUGUGUCUGGAAGGAGCGCGGGUUGGUUAAACACUGUCGCGGGCCAGUGAUGUUGGAAUCCGCAGGUAGGUCGCCAGCCACUUG [Araton]” and “AAGAGGACCAACAUCACUAGUCCUCGAAUACGAGGACCGGUACGGCCGCCACUCGAUAACUUGCAGUGAUGUUGCAAGUAAGAAU [(T)''-(K)'-(T)'-(T1)-(T2)-(K1)-(K2)_Design3]” are within 1.5-fold of each other in “apparent KD of K4 kissing-loop reporter” value: 284 nM for the first, 369 nM for the second.

First: CCUAUCUCAUACGAUACCAGUCUAUUAAAACGAGUGAUGUUCGAAAAUUUGCCAUAUAAUGACCCUUGGCAGCGUAUGGGAUAGG [Ex Theophylline B K4 8]
Second: AGUGGACGUGUCCGGAGUGAUGUUCCGGAUACCAGACACGAAAGUGUCCCUUGGCAGCAGGAGUGAUGUUCCGGCGUUCACUAAA [Omei KL Theo A Exc B v3]
The “apparent KD of K4 kissing-loop reporter” value of the first is 1.7-fold lower: 201 nM for the first, 351 nM for the second.

Going from “UAAUGCAUGACGGCCGCCACUAGUACUGGAGUGAUGUUGUGGUACGGCGGCAAUAUAGGGUGGACUAGGACCGGGUCAUGCAUAU [KL-XTryp-B12 #analogue]” to “UGUCAUUGGUCGGCCGCCACUGGACCGGGUAUAAUCCCAGUGAUGUUGGUAAAAUACGGCCGCCACAGGACCGGGACCGAUGACU [TrypBS 15 #DoubleAptamer #SwitchBubble #K4Middle]”, the “apparent KD of K4 kissing-loop reporter” value falls from 403 nM to 234 nM (1.7-fold).

“AAUAAAAUCACGGCCGCCACUGAUAUCCAUAUUAGGAGUGAUGUUCCUUUGACUAUAUAAUUUUACAGGACCGGGUGAAUAUUUA [JR_Nu_SSTryptoB_Sub027]” and “CCCAAGGGCGAACCGGUAUGAUCACCGGAUACCAGAGGCGAAAGCCUCCCUUGGCAGCCGGUUGUAGUGAUGUUACACUGGUUCU” are within 1.5-fold of each other in “apparent KD of K4 kissing-loop reporter” value: 104 nM for the first, 91.4 nM for the second.

“GUGAAGGAGCUGCAGUGAUGUUGCAGAGACUAGGAUAUCAGGAAACUGAGAAGGAGUCAACUCCUUCACCUAGACUGCAACAUAA [[F]''-[K1]-[K2]-[F1]-[F2]-[F2]'-[F1]'-[K]'_Design3]” and “AAACAUUGGUCUGAUACCAGCUUGAUCGGAAACGAUCUGCUGGAGUGAUGUUCCAAGUAAAGCCCUUGGCAGCAGACCGAUGAAA [MAT - Same State Theophlline B - Mod of Eli - D16]” are within 1.5-fold of each other in “apparent KD of K4 kissing-loop reporter” value: 99.6 nM for the first, 121 nM for the second.

First: AGAUUCGGCACGGCCGCCACUUCCGGUGGCUGGUGUCAUGGUGCGCGUGAGUGAUGUUUAUGUGGGAGGACCGGGUGUUGAGUCU [whbob_Ex_Tryp_B_w43]
Second: CCAUUCAUUUACGAUACCAGUCUAAUAUAUUUGAUCAAAACCCUCGCCGAGUGAUGUUCGGACCCUUGGCAGCGUCUGGGACAGG [eesetmullin]
The “apparent KD of K4 kissing-loop reporter” value of the first is 2-fold higher: 974 nM for the first, 477 nM for the second.

“UACUAUAGUGAUGUUAUAGAUAAACCAGAUACCAGUGUAACAUAACACCCUUGGCAGCUGAUGAGGGAACAUAUGAAAACAUAUG [AstroSTH-A#6newdesignED4.78]” and “UUGAGGGAGAAUUAUAGUGAUGUUAUAAAGAAGGAUAUCCAAAGAAGGAGAAGGUCUAAGAGGGAAGGGAGGGAGGGAGGGAGGG [ExFMNA.C]” are within 1.5-fold of each other in “apparent KD of K4 kissing-loop reporter” value: 254 nM for the first, 380 nM for the second.

Compared with “GGUAGUGCUAGCGAUACCAGUCAUAUCGCUCUGGAGUGAUGUUCCGGAACGUGCGGAGAAGACCCUUGGCAGCGCUUGACUGGAA [Exclusion Theophylline B GF6]”, “ACGCGCGCGAGUGAUGUUCGGAGCGGCUGGCAGGAUAUGGAGCAAUCCAGAAGGGUCGUGGCUGCUGGUAGGAAACUACUGGCAG [#2 Exclusion - FMN A Attempt #3 (HarryS)]” is 5.6-fold lower in “apparent KD of K4 kissing-loop reporter” value: 758 nM for the first, 135 nM for the second.

First: UGAUAGGACAGAAGGAGCGGGAGUGAUGUUCCCAAAAGGGUAAGGUGUCAAAAGACACCCUCCCAGGUAGGUCGCUGUCCUAUCU
Second: GUAGCACUCGAUAGUGAUGUUAUCGAGGGCAAGGAUAUCACCUCAGUGAGAAGGUGUCCUUGAUAACUGCUACGGGAAUAUCCCA [Omei KL FMN A Exc D v8]
The “apparent KD of K4 kissing-loop reporter” value of the first is 1.7-fold lower: 155 nM for the first, 270 nM for the second.

Going from “CUUCGAUUAACAGAUACCAGUCAUACUGGAGCCUCACUCGAGUGAGUGAUGUUCACUUGAGACCCUUGGCAGCUGUUAGUCGAAG [Theo B Ex t1a]” to “AGUGCACUGUCAGGAUAUAUACAGUGAUGUUGUGUAUGUCAGCAAGUCAAAGACUUGCUAUUUUGUAUAGAAGGGACUGUGUACA [whbob_Ex_FMNB__2th222]”, the “apparent KD of K4 kissing-loop reporter” value rises from 92.3 nM to 574 nM (6.2-fold).

First: CCAUCGCUAUUCGAUACCAGCCAAGAGGUCUUUGGCCUCUUAUUGGAGUGAUGUUCCAUUGGCCCUUGGCAGCGAAUAGUGAUGG [Theophylline B K4 17]
Second: UAUAGGGAUAGUGAUGUUAUCCCAUGUGAUACCAGUGCCAUCCAACACCCUUGGCAGCAUACGGGCAGUGAUGUUGUUCUUGGUA [Exclusion Theophylline A GF 14]
The “apparent KD of K4 kissing-loop reporter” value of the first is 3.5-fold higher: 356 nM for the first, 102 nM for the second.

First: UGUCAUUGGUCGGCCGCCACUUGAAGGUCAAAGACCAUAGAGUGAUGUUCUAAGACGAAAGUCACGAGGACCGGGACCGAUGACU [TrypBS 4 #SwitchBubble #K4Middle]
Second: UAGGAGUGAUGUUCCUUUAGCAGGUAGGAAGGAGCGCCCAUUUGGGCAGGUAGGUCGCCUACUGGCCCUAAGUUAAACCUUAGGC [KL-SSArg-A12]
The “apparent KD of K4 kissing-loop reporter” value of the first is 2.8-fold lower: 57.7 nM for the first, 160 nM for the second.

“AAACAUCACUGGGAGUGAUGUUCUCAGUGACGAGGACCGGUACGGCCGCCACUCGCGAGAGAUAUAGUCUAGUAUUGACUGCAUU [Excl Tryptophan A V11]” and “UUUAUUAAGACGGCCGCCACUGAUUCAGAGUGAUGUUCUGAUAAAAUUUUAGAUAAUAAUAACAGCAGGACCGGGUCAAUUAUUA [JR_SSTryptoB_Sub014]” are within 1.5-fold of each other in “apparent KD of K4 kissing-loop reporter” value: 242 nM for the first, 211 nM for the second.

Going from “UGGAGUUGACGAAAAGUCAACUCCUGAGAAGGAGCGGACGAAAGUCCAGGUAGGUCGCUCACUGCCAGUGAUGUUGGUAAAUAAA [#OpenEnded 1 - Direct theophylline transfer]” to “AAAGCUCUAUAGAGCAAGAGGUCAACUGAUACCAGAGGCUAUAGCCUCCCUUGGCAGCGGAACGAGUGAUGUUCGAGACCUCAAA [AK6.1 SS Theophylline A]”, the “apparent KD of K4 kissing-loop reporter” value rises from 89.5 nM to 1410 nM (16-fold).

Going from “AAGCAGUCACUCGUAGCCAUCGAAGAUGGUCGAGGACCGGUACGGCCGCCACUCGGAGUGAUGUUCCGAAGACUGCAAAAUAAAA” to “UGUGUUGUUUUGAUGUUUGGUGUUGCAUGGCAGGAUAUCGUAGAGGCGAGAAGGGCUUUUGAGCGGUAUGAGUGAUGUUUGUAGG [p,,mmullin]”, the “apparent KD of K4 kissing-loop reporter” value rises from 272 nM to 526 nM (1.9-fold).

Same assay, conditions: Eterna round: R107; input ligand: arginine 13.2 mM

Compared with “UUUUUAAUCGCAGAUACCAGUCCAGAAUAAAUACUAUAGUGAUGUUAUAAAUAAGGAAAGGACCCUUGGCAGCUGUACUAUAUUU [AstrosSsTheB#7]”, “AACACUCAACGGAGUGAUGUUCUGGAAAACCGAGGACCGGUACGGCCGCCACUCGGAAAUGAGUGAGUCCUACGAAAAGUAGGAC [Omei inspired 2]” is 2.9-fold lower in “apparent KD of K4 kissing-loop reporter” value: 465 nM for the first, 161 nM for the second.

Compared with “AAUUUUAAUAAUAAAUAAUAAAUAAAUGAUACCAGUAUUUUUUUUUACCCUUGGCAGCGUAUAUAAGGGCAGUGAUGUUGUCAGA [whbob_SS_Theo_A_w59]”, “AGAUGUUCCUGGGAUACCAGUCGGAGUCUCAGAGCUCGGAGUGAUGUUCUGGGAUGUUUCGGCCCUUGGCAGCUCUGGGACUCCC [#2 Exclusion - Theophylline B Attempt #24 (HarryS)]” is 4.3-fold higher in “apparent KD of K4 kissing-loop reporter” value: 144 nM for the first, 624 nM for the second.

“GGGCGUGGCGCGGCCGCCACUGCGCCUGGGUGCUCGCUGAGUGAUGUUCGUCGGCGGUUGGGUGGUAGGACCGGGUGCUGGUCGG [BDazzled - #11 SS Tryptophan B]” and “CGUGAAGCCCAGAGGUGAUGUAUAGUAUCGCGAGGACCGGUACGGCCGCCACUCGUGAAGAGAAAGGAGUGAUGUUCCGUAAUGG” are within 1.5-fold of each other in “apparent KD of K4 kissing-loop reporter” value: 407 nM for the first, 380 nM for the second.

Going from “AAUAAAAUCACGGCCGCCACUAAUGCUAGUAUUAGCAGUGAUGUUGCUAUGUAUAUUUUAUUUAAUAGGACCGGGUGAAUAUUUA [#23 K4 Tryptophan B Exclusion]” to “AUUAAUUUCAGAGGAUAUCGUAUUAAUAUUUUAUCUAUCUAUAUAUGCAGUGAUGUUGCAAUAAUUCGAGAAGGCUGAUUUAUAA [JR_ExcFMNB_Sub009]”, the “apparent KD of K4 kissing-loop reporter” value falls from 294 nM to 101 nM (2.9-fold).

“AAAUUUAUAUUAGAUACCAGUAUUUUGAAUGUUUAUUAUGACAAGAGUGAUGUUCUUGUAUGCCCUUGGCAGCUGGUAUGGGUUU [KL-XTheo-B23]” and “AAGGUUGUGCAUGGGAGUGAUGUUCCCAGGCAGGAUAUCGCUCACGCGAGAAGGGCUAGCACAACCGCUCAAGAAACUUGAGCAA [Omei KL FMN A SS C v4]” are within 1.5-fold of each other in “apparent KD of K4 kissing-loop reporter” value: 111 nM for the first, 97.1 nM for the second.

From the supplement of paper PMC9170038
